# Reference: patent US20230226096A1 (Orna Therapeutics, Inc., priority 2020, published 2023)
# B1: TRV NGS910 (nucleic acid)
# DNA: ATGCGACGTGGTTGGAGATTAAACCGACTCCGACGAAAGTGCTATCATGCCTCCCCGATTATGTGATGTTTTCTGCCCTGCTGGGCGGAGCATTCTCGGGTTGATACACCTTGAATCCTTCATCCTTGGACCTCAGGTCCCCCGGTCTAAGCCGCTTGGAATACGACAGGGTTATTTTCCAATCTTCTCCTTTCTACTTTCATGAGTCCTATTCATGAAAAGGGTCTGTGCTGCCCCTTCCTTCTTGGAGAATCTGCGCGGCGGTCTTTCCGTCTCTCGAAAAGCGCAGATGCAGCATGCTGGAACCGGTGAAGAAAACAGTTCTTTGTGGAAACTTAGAGCAGACATCGAAACAGCTGTAGTGACCTCACAGTAGCAGCGGAACCCCCTCCTGGTAACAGGAGCCTCTGCGGCCAAAAGCCCCGTGGATAAGATCCACTGCTGTGAGCGGTGCAACCCCAGCACCCTGGTTCGATGGTTGTTCTCTGTGGAACCAGAGAATGGTCTTTCTCAAGCCCTCCAGTAGAGAAGCCAAGAATGTCCTGAAGGTACCCCGCATGCGGGATCTGATCAGGAGACCAATCGTCAGTGCTTTACACTGGCGCTTTGGTTTAAAAACTGTCACAGCTTCTCCAAACCAAGTGGTCTTGGTTTTCACTTTTATCAAACTGTTTC
# B2: Cosavirus A SH1 (nucleic acid)
# DNA: CCGTGCTTTACACGGTTTTTGAACCCCACACCGGCTGTTTGGCGCTTGCAGGACAGCAGGTTTATTTTCTTATGCTCTTTATTTCTAGCCAACAGGGTTCTATCCTGTTGGGCGGAGTGATACTCCCGTTCCTTCTTGGACAGATTGCCTCCACGATCTTTGTGGATCTCAAGGTGATCAAGTCACTGGTAAATAGAGCGAAGGTTGAGGAAACCTGAGGAATTTCCATGTGGTTTTGCCAGGAGTTGTAGCGATGCTGTGTGTGTGTGCGGATTTCCCCTCATGGCAACATGAGCCTCACAGGCCAAAAGCCCTGTCCGAAAGGACCCACACAGTGGAGCAATCCCAGCTCCCTCCTACAAAGCTTTGTGAGAATGAACTCACGTTTATTCTTCTTTATTCTCTGTTTACATCAGGCCCCAAAGATGTCCTGAAGGTACCTTGTGTATCTGGGCATGAGCACCATCAACTACCCGGACTTGCATTTCGGTGCAGACACATGTGGTTACCCAGCCCCTCTGCTTTGGCAGAGGGGCTTTTGCTCGCTCAGCACGAGATCTGATCAGGAGCCCTTCCCAGTGTGCTTTACACCTGGCGGGGGGTTAAAAATTGCCCAAGGCCTGGCAAAATAACCTAGGGGACTAGGTTTTCCTTTTATTAACAATGTCTGTCATT
# modifications: Cosavirus A
# B3: REV A (nucleic acid, listed as Reticuloendotheliosis virus)
# DNA: GGGGTCGCCGTCCTACACATTGTTGTGACGTGCGGCCCAGATTCGAATCTGTAATAAAAGCTTTTTCTTCTATATCCTCAGATTGGCAGTGAGAGGAGATTTTGTTCGTGGTGTTGGCTGGCCTACTGGGTGGGGTAGGGATCCGGACTGAATCCGTAGTATTTCGGTACAACATTTGGGGGCTCGTCCGGGATTCCTCCCCATCGGCAGAGGTGCCTACTGTTTCTTCGAACTCCGGCGCCGGTAAGTAAGTACTTGATTTTGGTACCTCGCGAGGGTTTGGGAGGATCGGAGTGGCGGGACGCTGCCGGGAAGCTCCACCTCCGCTCAGCAGGGGACGCCCTGGTCTGAGCTCTGTGGTATCTGATTGTTGTTGAACCGTCTCTAAGACGGTGATACTATAAGTCGTGGTTTGTGTGTTTGTTTGTTACCTTGTGTTTGTTCGTCACTTGTCGACAGCGCCCTGCGAATTGGTGTACCCACACCGCGCGGCTTGCGAATAATACTTTGGAGAGTCTTTTGCCTCCAGTGTCTTCCGTTTGTACTCGTCCTCCTCTCCCTCTCCGGCCGGGATGGG
# B4: SAV P-113 (nucleic acid)
# DNA: GGAGATCTAAGTCAACCGACTCCGACGAAACTACCATCATGCCTCCCCGATTATGTGATGCTTTCTGCCCTGCTGGGTGGAGCATCCTCGGGTTGAGAAAACCTTCTTCCTTTTTCCTTGGACCCCGGTCCCCCGGTCTAAGCCGCTTGGAATAAGACAGGGTTATCTTCACCTCTTCCTTCTTCTACTTCATAGTGTTCTATACTATGAAAGGGTATGTGTCGCCCCTTCCTTCTTTGGAGAACACGCGCGGCGGTCTTTCCGTCTCTCGAAAAGCGCGTGTGCGACATGCAGAGAACCGTGAAGAAAGCAGTTTGCGGACTAGCTTTAGTGCCCACAAGAAAACAGCTGTAGCGACCACACAAAGGCAGCGGACCCCCCCTCCTGGCAACAGGAGCCTCTGCGGCCAAAAGCCACGTGGATAAGATCCACCTTTGTGTGCGGCACAACCCCAGTGCCCTGGTTTCTTGGTGACACTTCAGTGAAAACGCAAATGGCGATCTGAAGCGCCTCTGTAGGAAAGCCAAGAATGTCCAGGAGGTACCCCTTCCCTCGGGAAGGGATCTGACCTGGAGACACATCACATGTGCTTTACACCTGTGCTTGTGTTTAAAAATTGTCACAGCTTTCCCAAACCAAGTGGTCTTGGTTTTCACTCTTTAAACTGATTTCACT
# B5: EMCV1 AnrB-3741 (nucleic acid)
# DNA: ATGTGGTCGAAGCCACTTGGAATAAGACCGGCGTGCGCTTGTCTATATGTTACTTCCACCACATTGCCGTCTTTTGGCAATGTGAGGGCCCGGAACCTGGCCCTGTCTTCTTGACGAACATTCCTAGGGGACTTTCCCCTCTCGCCAAAGGAATGTAAGGTCTGTTGAATGTCGTGAAGGAAGCAGTTCCTCTGGAAGCTTCTTGAAGACAAACAGCGTCTGTAGCGACCCTTTGCAGGCAGCGGAACCCCCCACCTGGTAACAGGTGCCTCTGCGGCCGAAAGCCACGTGTATAAGATACACCTGCAAAGGCGGCACAACCCCAGTGCCACGTTGTGCGTTGGATAGTTGTGGAAAGAGTCAAATGGCTTTCCCCAAGCGTATTCAACAAGGGGCTGAAGGATGCCCAGAAGGTACCCCACTGGTTGGGATCTGATCTGGGGCCTCGGTGCAGGTGCTTTACACCTGTTGAGTCGAGGTTAAAAAACGTCTAGGCCCCCCGAACCACGGGGACGTGGTTTTCCTAGAAAACCACTATGACAAT
# B6: Cosavirus D1 (nucleic acid, listed as Cosavirus sp.)
# DNA: CGTGCTTTACACGGTTTTTGAACCCCACACCGGCTGTTTGGCGCTTGCAGGACAGTAGGTATATTTTCTTTCATTTCTCTTTTCTAGCCGCGTAGGTTCTATCTACGCGGGCGGAGTGATACTCCCGCTCCTTCTTGGACAGGCGGCCTCCACGCTCTTTGTGGATCTTAAGGCTGCCAAGTCACTGGTGTTTGAAGTGAAGAATGGAGAGACACTAGGGCGTTTCATGTGGCTTTGCCAGGGATTGTAGCGATGCTGTGTGTGTGTGCGGATTTCCCCTCGTGGCGACACGAGCCTCACAGGCCAAAAGCCCTGTCCGAAAGGACCCACACAGTGGGGTTGCCCCGACCCCTCCCTTCAAAGCTTTGTGTAAACAAACTTTTGTTTAGACTTTCTTAAGCTTCTCTCACATCAGGCCCCAAAGATGTCCTGAAGGTACCCTGTGTATCTGAGGATGAGCACCACCAACTACCCGGACTTGTGGGACGTGTCCCACAGACGCATGTGGTATTCCAGCCCCCTCCTTTTGAGGAGGGGGCTTTTGCTCGCTCAGCACAGGATCTGATCAGGAGATTCATCTCTGGTGCTTTACACCAGAGCATGGATTTAAAAATTGCCCAAGGCCTGGCAAACAACCTAGGGGACTAGGTTTTCTCTATTTTAAAAGATGTCAAT
# B7: VHEV (nucleic acid)
# DNA: AATTCCTTCTTCCTTTCTCCTTGGACCTCGGTCCCCCGGTCTAAGCCGCTCGGAATATGACAGGGTTATTTTCACCTCTTCTCTCTTCTACTTCATAGTGTTCTATACTATGAAAGGGTATGTGTCGCCCCTTCCTTCTTGGAGAACGTGCGTGGCGGTCTTTCCGTCTCTCGAAAAACGTGCGTGCGACATGCAGAGTAACGCAAAGAAAGCAGTTCTTGGTCTAGCTCTGGTGCCCACAAGAAAACAGCTGTAGCGACCACACAAAGGCAGCGGAAACCCCCTCCTGGTAACAGGAGCCTCTGCGGCCAAAAGCCACGTGGATAAGATCCACCTTTGTGTGCGGTGCAACCCCAGCACCCTGGTTTCTTGGTGACACCTTAGTGAACCCTCGAATGGCAATCTCAAGCGCCTCTGTAGGAAAGCCAAGAATGTCCAGGAGGTACCCCTTCCTCATGGAGGGATCTGACCTGGAGACACATCACACGTGCTATACACTTGTGCTTGTGTTTAAAAATTGTCACAGCTTTCCCAAACCAAGTGGTCTTGGTTTTCCCTTAACTTCGAAAAGTCACTATGGCCTGCAAACATGGATACCCAGACGTGTGCCCT
# B8: Cosavirus B1 (nucleic acid, listed as Cosavirus sp.)
# DNA: CGTGCTTTACACGGTTTTTGAACCCCACACCGGCTGTTTGGCGCTTGCAGGACAGCAGGTTTATTTTCTTTTAACTCTCTCTTTCTAGCCACACACGATCTATGTGTGTGGGCGGAGTGATACTCCCGTTCCTTCTTGGACAGGCGGCCTCCACGCCCTTTGTGGATCTTAAGGCTACCAAGTCACTGGTGTTGGAAAGTGAAGAGAAAGGAGTTCCTTGGGAACTACATGTGGCATTGACAGAGGTTGTAGCGATGCTGTGTGTGTGTGCGGATTACCCCCGTGGCGACACGGACCCCACAGGCCAAAAGCCCTGTCCGAAAGGACCCACACAGTGGAGCAACCCCAGCTCCCCTCTTCAATGTTTTGTGTTAGCAACCTTGGTATTATTTTCTCTCAAGCTTCCAATACACCGGGCCCCAAAGATGTCCTGAAGGTACCCCGTGTATCTGAGGATGAGCACCATCAACTACCCGGACTTGTTCTTTCGAGAACAGACGCATGTGGTAACCCAGCCCCGATCCTAAGGGGTCGGGGCTTTTGCTCACTCAGCACAGGATCTGATCAGGAGACCTCCCCCCCCTGCTTTACAGGGGGCGGGGGTTTAAAAATTGCCCAAGGCCTGGCAAATAACCTAGGGGACTAGGTTTTCCTTTTTATTTTAAAGTTGTCAAT
# B9: EMCV2 RD1338 (nucleic acid)
# DNA: AAATACTGGTCGAAACCGCTTGGGATAAGACCGGGGTTTGTTAATGTCTCAATGTTATTCTCCACCCAATTGACGTCTTTTGTCAATTGGAGGGCAGTGAAACCTTGCCCTTGCTTCTTGCAGAGGATTCCCAGTGGTCTTTCCGCTCTCGACAAGGGAATTCATGATCCACCAAAAGTTGTGAAGAGAGCAGGTCCCATGGAAGCTTTCTGACGACTGATGATGACTGTAGCGACCCTTTGCAGGCAGCGGACCCCCCCACCTGGTGACAGGTGCCTCTGCGGCCAAAAGCCACGTGTTTAACAGACACCTGCAAAGGCGGCACAACCCCAGTGCCTCATCAAAAGTCTGATGACTGTGGAAATAGTCAACCGGCTTTTCTTAAGCAAATTTGGTGTCGGGGCTGAAGGATGCCCGGAAGGTACCACACTGGTTGTGATCTGATCCGGGGCCACAGTACATGTGCTTTACACATGTAGCTGCGGTTAAAAAACGTCTAGGCCCCCCGAACCACGGGGACGTGGTTTTCCTTTGAAAACCACGATTACAAT
# Tested on: HEK293 cells
# Assay type: cell-based, human
# Conditions: luminescence from secreted Gluc in supernatant 24 hours after transfection of HEK293 cells; circular RNA encoding Gluc with the named IRES (UTR truncated to 675 nt)
row,Molecule,Expression
1,B1,3.84E+07
2,B2,2.16E+06
3,B3,9.44E+04
4,B4,4.37E+07
5,B5,2.55E+06
6,B6,2.11E+06
7,B7,1.74E+08
8,B8,1.91E+06
9,B9,1.97E+06
